In patent JP2018076351A (dated 2018) one finds Kd data, which are given here for two molecules.

The target of assay [1] is human PCSK9 (wild type) (human). Briefly: KinExA, solution equilibrium, PCSK9-coated beads.
A further assay concerns the target cynomolgus monkey PCSK9 (cynomolgus monkey, UniProt A0A7N9D9N8 150-747). Briefly: KinExA, solution equilibrium, PCSK9-coated beads; KD adjusted for 50 % active cPCSK9. On the technique in general: A kinetic exclusion assay measures how much of one partner remains free in solution.
Assay [2] addresses human PCSK9 (wild type) (human). Briefly: Biacore at pH 6.0 (HBS-P with 0.01 % BSA); KD from nonlinear regression of competition curves, n=1.

B1: 16F12 (antibody, V domains shown)
VH: QVHLVESGGGVVQPGRSLRLSCAASGFTFNSFGMHWVRQAPGKGLEWVALIWSDGSDEYYADSVKGRFTISRDNSKNTLYLQMNSLRAEDTAVYYCARAIAALYYYYGMDVWGQGTTVTVSS
VL: QSVLTQPPSVSAAPGQKVTISCSGSSSNIGNNFVSWYQQLPGTAPKLLIYDYNKRPSGIPDRFSGSKSGTSATLGITGLQTGDEADYYCGTWDSSLSAYVFGTGTRVTVLQ
Consider B1, for which the Kd was found to be 0.015 nM with human PCSK9 (wild type) [1], 0.016 nM in the assay with cynomolgus monkey PCSK9 and 0.029 nM with human PCSK9 (wild type) [2].

B2: 31H4 (antibody, V domains shown)
VH: EVQLVESGGGLVKPGGSLRLSCAASGFTFSSYSMNWVRQAPGKGLEWVSSISSSSSYISYADSVKGRFTISRDNAKNSLYLQMNSLRAEDTAVYFCARDYDFWSAYYDAFDVWGQGTMVTVSS
VL: QSVLTQPPSVSGAPGQRVTISCTGSSSNIGAGYDVHWYQQLPGTAPKLLISGNSNRPSGVPDRFSGSKSGTSASLAITGLQAEDEADYYCQSYDSSLSGSVFGGGTKLTVLQ
In the case of B2, the Kd stood at 0.003 nM with human PCSK9 (wild type) [1], 0.002 nM with cynomolgus monkey PCSK9 and 0.0125 nM in the assay with human PCSK9 (wild type) [2].

One may read the Kd as the constant that tells how readily two partners part at equilibrium.
